# Test results: patent US20240247301A1, “DIAGNOSTIC ASSAY FOR CLASSIC INBORN GALACTOSEMIA” (Ohio State Innovation Foundation, priority 2022, published 2024)
# Values joined by “and” are separate entries in the source; they are usually repeats but may differ in a detail not shown here. Equal values may be shown once.
# B1: Duarte GalT (galactose-1-phosphate uridylyltransferase, Duarte variant) (Homo sapiens; N314D) (protein)
# chain: MSRSGTDPQQRQQASEADAAAATFRANDHQHIRYNPLQDEWVLVSAHRMKRPWQGQVEPQLLKTVPRHDPLNPLCPGAIRANGEVNPQYDSTFLFDNDFPALQPDAPSPGPSDHPLFQAKSARGVCKVMCFHPWSDVTLPLMSVPEIRAVVDAWASVTEELGAQYPWVQIFENKGAMMGCSNPHPHCQVWASSFLPDIAQREERSQQAYKSQHGEPLLMEYSRQELLRKERLVLTSEHWLVLVPFWATWPYQTLLLPRRHVRRLPELTPAERDDLASIMKKLLTKYDNLFETSFPYSMGWHGAPTGSEAGANWDHWQLHAHYYPPLLRSATVRKFMVGYEMLAQAQRDLTPEQAAERLRALPEVHYHLGQKDRETATIA
# Substrate: O=P(O)(O)O[C@H]1O[C@H](CO)[C@H](O)[C@H](O)[C@H]1O
# Assay: purified protein, by the assay type
# [1] = other: SUMO-tagged YidA as coupling enzyme, pH 8.0
protein,measurement,setting,value
B1,Km,[1],890 ± 30 µM
same,kcat,[1],14.8 ± 0.867 s⁻¹
same,Km,"other: mean ± SD of three independent trials, pH 8.0",660 ± 20 µM and 530 ± 40 µM
same,Km,"other: single trials, ± curve-fit error, pH 8, 37° C., 0.8 mM UDP-glucose, 37.0 °C",550 ± 90 µM and 480 ± 30 µM
same,Km,"other: single trials, ± curve-fit error, pH 8.0, 37° C., 1 mM UDP-glucose, 37.0 °C",670 ± 180 µM and 630 ± 140 µM and 670 ± 150 µM
